The term pKd denotes the negative decadic logarithm of the Kd, by convention in mol/L. Lower therefore signals a high Kd.

pKd: −log10 of the molar value.

We go through 4 sequences from US20090075342.

The data set has as its system IgE (full length human IgE, h-IgE) (Homo sapiens), P01854-1. The data set can be described thus: filter. The conditions noted are these: 2'-deoxy at 6, 8, 9, 16, 18, 19, 20, 21, deoxyinosine at 16, 18, 20 (written as G), T24 = 3' inverted dT], dot-blot, DPBS with Mg and Ca, 0.1 mg/mL BSA, room temperature, 30 min.

Chain of IgE (full length human IgE, h-IgE) (Homo sapiens), P01854-1 (P01854 other isoform, or with tags, fused parts or gaps): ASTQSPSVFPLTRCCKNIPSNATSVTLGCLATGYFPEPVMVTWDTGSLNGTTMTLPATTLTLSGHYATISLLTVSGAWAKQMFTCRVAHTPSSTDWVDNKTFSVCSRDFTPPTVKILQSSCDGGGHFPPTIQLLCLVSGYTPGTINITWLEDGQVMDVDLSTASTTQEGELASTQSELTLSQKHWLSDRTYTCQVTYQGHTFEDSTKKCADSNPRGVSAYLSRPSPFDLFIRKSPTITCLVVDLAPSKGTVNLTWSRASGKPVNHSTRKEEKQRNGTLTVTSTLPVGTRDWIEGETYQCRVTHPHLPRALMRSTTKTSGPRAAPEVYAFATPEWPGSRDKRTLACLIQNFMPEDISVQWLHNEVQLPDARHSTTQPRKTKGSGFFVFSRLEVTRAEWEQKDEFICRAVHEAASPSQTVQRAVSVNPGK

The sequence AGCCUGGGGACCCAUGGGGGGCU [ARC1666] showed a pKd (2'-OMe at A1 G2 C3 C4 U5 G7 A10 C11 C12 C13 A14 U15 G17 C22 U23, 2'-deoxy at G6 G8 G9 I16 I18 G19 I20 G21, n = deoxyinosine, PS between 8-9, 15-16, 16-17, 18-19, 20-21, 3' 3T cap (inverted dT) [2'-OMe at 1-5, 7, 10-15, 17, 22, 23) of 10.46.

In the case of AGCCUGGGGACCCAUGGGGGGCU [ARC2982], the negative logarithm of the Kd (pKd) (as ARC1666 (2'-OMe/2'-deoxy/deoxyinosine, 3' 3T cap) with PS between 8-9, 15-16, 16-17, 17-18, 18-19, 20-21 [2'-OMe at 1-5, 7, 10-15, 17, 22, 23, PS between 8-9, 15-16, 16-17, 17-18, 18-19, 20-21) was 10.52. Regarding AGCCUGGGGACCCAUGGGGGGCU [ARC2983], under “as ARC1666 (2'-OMe/2'-deoxy/deoxyinosine, 3' 3T cap) with PS between 8-9, 15-16, 16-17, 18-19, 19-20, 20-21 [2'-OMe at 1-5, 7, 10-15, 17, 22, 23, PS between 8-9, 15-16, 16-17, 18-19, 19-20, 20-21”, the pKd was 10.70. As to AGCCUGGGGACCCAUGGGGGGCU [ARC3901], under “as ARC1666 (2'-OMe/2'-deoxy/deoxyinosine, 3' 3T cap) with PS between 8-9, 15-16, 16-17, 17-18, 18-19, 19-20, 20-21 [2'-OMe at 1-5, 7, 10-15, 17, 22, 23, PS between 8-9, 15-16, 16-17, 17-18, 18-19, 19-20, 20-21”, the pKd is 9.89.
